Laboratory results from the supplement of paper PMC9112550, “Optimization of the antimicrobial peptide Bac7 by deep mutational scanning” (BMC Biology, 2022).

System: Escherichia coli TOP10
Test: shrunken log2 fold change of peptide-encoding DNA abundance (4.5 h post-induction vs induction); higher = less antimicrobial activity (less host growth inhibition)
Settings: time post-induction: 4.5 h; library: site-saturation at positions 5, 18, 19, 20
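Note: peptides expressed intracellularly from a pBAD plasmid library in pooled LB shake-flask culture, induced with 0.3% L-arabinose, DNA abundance read by NGS, three biological replicates, DESeq2 with apeglm shrinkage.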

| Sequence | shrunken log2 fold change |
| --- | --- |
| RRIRFRPPRLPRPRPRPQMTPRP | -0.169 |
| RRIRVRPPRLPRPRPRPSCNPRP | -0.509 |
| RRIRNRPPRLPRPRPRPNGMPRP | -0.00904 |
| RRIRARPPRLPRPRPRPCPAPRP | 0.209 |
| RRIRARPPRLPRPRPRPFILPRP | -0.39 |
| RRIRWRPPRLPRPRPRPCPYPRP | -0.271 |
| RRIRLRPPRLPRPRPRPAMFPRP | -0.0833 |
| RRIRARPPRLPRPRPRPFVIPRP | 0.0345 |
| RRIRCRPPRLPRPRPRPMPTPRP | 0.592 |
| RRIRTRPPRLPRPRPRPRFEPRP | 0.0138 |
| RRIRFRPPRLPRPRPRPNDGPRP | -0.222 |
| RRIRYRPPRLPRPRPRPIAMPRP | -0.322 |
| RRIRVRPPRLPRPRPRPKVWPRP | 0.409 |
| RRIRCRPPRLPRPRPRPMIRPRP | -0.0688 |
| RRIRIRPPRLPRPRPRPGNEPRP | -0.0358 |
| RRIRKRPPRLPRPRPRPSVDPRP | 0.0884 |
| RRIRLRPPRLPRPRPRPCMCPRP | -0.967 |
| RRIRHRPPRLPRPRPRPKDWPRP | 0.207 |
| RRIRYRPPRLPRPRPRPVGPPRP | -0.328 |
| RRIRERPPRLPRPRPRPIKPPRP | -0.363 |
| RRIRFRPPRLPRPRPRPKAGPRP | 0.307 |
| RRIRSRPPRLPRPRPRPDTQPRP | -0.00981 |
| RRIRHRPPRLPRPRPRPNIWPRP | 0.0229 |
| RRIRERPPRLPRPRPRPLCFPRP | -0.313 |
| RRIRKRPPRLPRPRPRPNPWPRP | 0.00515 |

| Sequence | shrunken log2 fold change |
| --- | --- |
| RRIRFRPPRLPRPRPRPPTCPRP | 0.186 |
| RRIRSRPPRLPRPRPRPNEHPRP | -0.655 |
| RRIRRRPPRLPRPRPRPWPPPRP | 0.514 |
| RRIRRRPPRLPRPRPRPQIAPRP | 0.31 |
| RRIRSRPPRLPRPRPRPMRAPRP | 0.706 |
| RRIRGRPPRLPRPRPRPCFTPRP | 0.334 |
| RRIRHRPPRLPRPRPRPPCIPRP | 0.00475 |
| RRIRSRPPRLPRPRPRPCGWPRP | 0.148 |
| RRIRGRPPRLPRPRPRPQAKPRP | 1.34 |
| RRIRNRPPRLPRPRPRPIDEPRP | -0.0586 |
| RRIRRRPPRLPRPRPRPGIFPRP | -0.174 |
| RRIRNRPPRLPRPRPRPYLDPRP | -0.181 |
| RRIRSRPPRLPRPRPRPKPLPRP | -0.107 |
| RRIRTRPPRLPRPRPRPGVLPRP | 0.08 |
| RRIRVRPPRLPRPRPRPDHPPRP | -0.386 |
| RRIRSRPPRLPRPRPRPCEFPRP | -0.227 |
| RRIRYRPPRLPRPRPRPLSSPRP | -0.214 |
| RRIRHRPPRLPRPRPRPYLLPRP | -0.611 |
| RRIRCRPPRLPRPRPRPTHKPRP | 0.298 |
| RRIRWRPPRLPRPRPRPHNMPRP | -0.623 |
| RRIRRRPPRLPRPRPRPWDSPRP | 0.0548 |
| RRIRLRPPRLPRPRPRPEIDPRP | -0.0103 |
| RRIRDRPPRLPRPRPRPKGRPRP | 0.218 |
| RRIRSRPPRLPRPRPRPNGWPRP | 0.623 |
| RRIRPRPPRLPRPRPRPHLQPRP | 0.152 |

| Sequence | shrunken log2 fold change |
| --- | --- |
| RRIRNRPPRLPRPRPRPVILPRP | -0.61 |
| RRIRLRPPRLPRPRPRPCEGPRP | -0.199 |
| RRIRWRPPRLPRPRPRPDYTPRP | -0.0601 |
| RRIRVRPPRLPRPRPRPHGGPRP | -0.0243 |
| RRIRIRPPRLPRPRPRPGRYPRP | -0.0696 |
| RRIRQRPPRLPRPRPRPDYVPRP | 0.07 |
| RRIRGRPPRLPRPRPRPFYKPRP | -0.0686 |
| RRIRQRPPRLPRPRPRPICDPRP | -0.0181 |
| RRIRGRPPRLPRPRPRPIDTPRP | 0.306 |
| RRIRERPPRLPRPRPRPSPNPRP | -0.328 |
| RRIRMRPPRLPRPRPRPQCGPRP | 0.096 |
| RRIRCRPPRLPRPRPRPPGRPRP | 1.16 |
| RRIRNRPPRLPRPRPRPIVLPRP | -0.211 |
| RRIRIRPPRLPRPRPRPDDMPRP | -0.0552 |
| RRIRYRPPRLPRPRPRPRCHPRP | -0.512 |
| RRIRSRPPRLPRPRPRPERDPRP | 0.138 |
| RRIRYRPPRLPRPRPRPVITPRP | -0.241 |
| RRIRERPPRLPRPRPRPEIPPRP | 0.151 |
| RRIRLRPPRLPRPRPRPTKWPRP | -0.0762 |
| RRIRIRPPRLPRPRPRPENWPRP | -0.00191 |
| RRIRKRPPRLPRPRPRPFWDPRP | -0.0842 |
| RRIRDRPPRLPRPRPRPPNQPRP | 0.317 |
| RRIRVRPPRLPRPRPRPFLYPRP | -0.728 |
| RRIRFRPPRLPRPRPRPQGVPRP | 0.103 |
| RRIRHRPPRLPRPRPRPCTYPRP | -0.634 |

| Sequence | shrunken log2 fold change |
| --- | --- |
| RRIRRRPPRLPRPRPRPPWMPRP | 0.269 |
| RRIRARPPRLPRPRPRPACHPRP | 0.371 |
| RRIRTRPPRLPRPRPRPKGHPRP | 0.208 |
| RRIRCRPPRLPRPRPRPGMHPRP | -0.0345 |
| RRIRWRPPRLPRPRPRPYRCPRP | 0.0623 |
| RRIRVRPPRLPRPRPRPWEPPRP | 0.13 |
| RRIRSRPPRLPRPRPRPVKWPRP | -0.03 |
| RRIRRRPPRLPRPRPRPRGTPRP | 0.216 |
| RRIRQRPPRLPRPRPRPHSEPRP | -0.0749 |
| RRIRARPPRLPRPRPRPKGIPRP | -0.0515 |
| RRIRYRPPRLPRPRPRPYKCPRP | -0.175 |
| RRIRLRPPRLPRPRPRPIKYPRP | 0.0258 |
| RRIRRRPPRLPRPRPRPEFGPRP | 0.376 |
| RRIRKRPPRLPRPRPRPARWPRP | 0.464 |
| RRIRKRPPRLPRPRPRPCTIPRP | -0.204 |
| RRIRQRPPRLPRPRPRPLLQPRP | 0.212 |
| RRIRHRPPRLPRPRPRPQHHPRP | -0.87 |
| RRIRWRPPRLPRPRPRPWCRPRP | -0.000362 |
| RRIRPRPPRLPRPRPRPPKAPRP | -0.0122 |
| RRIRFRPPRLPRPRPRPQPIPRP | 0.222 |
| RRIRDRPPRLPRPRPRPWDPPRP | 0.0959 |
| RRIRTRPPRLPRPRPRPRATPRP | 0.299 |
| RRIRLRPPRLPRPRPRPFVSPRP | -0.281 |
| RRIRLRPPRLPRPRPRPTRNPRP | 0.24 |
| RRIRTRPPRLPRPRPRPNFKPRP | -0.131 |

| Sequence | shrunken log2 fold change |
| --- | --- |
| RRIRYRPPRLPRPRPRPDCFPRP | -0.0906 |
| RRIRGRPPRLPRPRPRPFQGPRP | -0.0101 |
| RRIRSRPPRLPRPRPRPLVTPRP | 0.0214 |
| RRIRARPPRLPRPRPRPCTPPRP | -0.0509 |
| RRIRRRPPRLPRPRPRPFLEPRP | 0.0277 |
| RRIRCRPPRLPRPRPRPWILPRP | -0.357 |
| RRIRKRPPRLPRPRPRPVVYPRP | -0.266 |
| RRIRPRPPRLPRPRPRPIQWPRP | 0.0833 |
| RRIRCRPPRLPRPRPRPPSGPRP | 0.233 |
| RRIRIRPPRLPRPRPRPAYMPRP | -0.688 |
| RRIRTRPPRLPRPRPRPRDWPRP | 0.483 |
| RRIRTRPPRLPRPRPRPNTNPRP | -0.556 |
| RRIRFRPPRLPRPRPRPAWLPRP | 0.231 |
| RRIRLRPPRLPRPRPRPREEPRP | -0.0235 |
| RRIRSRPPRLPRPRPRPRVAPRP | 0.179 |
| RRIRCRPPRLPRPRPRPANQPRP | -0.137 |
| RRIRPRPPRLPRPRPRPGSQPRP | 0.127 |
| RRIRFRPPRLPRPRPRPCAIPRP | -0.0259 |
| RRIRWRPPRLPRPRPRPIQQPRP | 0.0331 |
| RRIRLRPPRLPRPRPRPNSNPRP | -0.335 |
| RRIRCRPPRLPRPRPRPRKKPRP | -0.125 |
| RRIRHRPPRLPRPRPRPETLPRP | -0.18 |
| RRIRTRPPRLPRPRPRPLDWPRP | 0.398 |
| RRIRYRPPRLPRPRPRPDERPRP | 0.0108 |
| RRIRYRPPRLPRPRPRPHLKPRP | -0.452 |
